Laboratory results: article PMC6917434 (Journal of thrombosis and haemostasis : JTH, 2019)
Read-outs that look alike come from different tables or passages of the source. Values belong to the molecule of their own block, whether it stands above or below them.

Assays:
Assay in all cases: single-molecule atomic force microscopy
[1] = target: Factor XIII A subunit of plasma-purified inactive factor XIII (pFXIII-A2B2) (human) (UniProt P00488)
[2] = target: the molecule itself
[3] = target: the molecule itself; remark: listed apart in the source
[4] = target: T1, recombinant inactive factor XIII A subunit from ZymoGenetics (rFXIII-A2) (human), P00488; details: remark: other sources report otherwise
T1 chain: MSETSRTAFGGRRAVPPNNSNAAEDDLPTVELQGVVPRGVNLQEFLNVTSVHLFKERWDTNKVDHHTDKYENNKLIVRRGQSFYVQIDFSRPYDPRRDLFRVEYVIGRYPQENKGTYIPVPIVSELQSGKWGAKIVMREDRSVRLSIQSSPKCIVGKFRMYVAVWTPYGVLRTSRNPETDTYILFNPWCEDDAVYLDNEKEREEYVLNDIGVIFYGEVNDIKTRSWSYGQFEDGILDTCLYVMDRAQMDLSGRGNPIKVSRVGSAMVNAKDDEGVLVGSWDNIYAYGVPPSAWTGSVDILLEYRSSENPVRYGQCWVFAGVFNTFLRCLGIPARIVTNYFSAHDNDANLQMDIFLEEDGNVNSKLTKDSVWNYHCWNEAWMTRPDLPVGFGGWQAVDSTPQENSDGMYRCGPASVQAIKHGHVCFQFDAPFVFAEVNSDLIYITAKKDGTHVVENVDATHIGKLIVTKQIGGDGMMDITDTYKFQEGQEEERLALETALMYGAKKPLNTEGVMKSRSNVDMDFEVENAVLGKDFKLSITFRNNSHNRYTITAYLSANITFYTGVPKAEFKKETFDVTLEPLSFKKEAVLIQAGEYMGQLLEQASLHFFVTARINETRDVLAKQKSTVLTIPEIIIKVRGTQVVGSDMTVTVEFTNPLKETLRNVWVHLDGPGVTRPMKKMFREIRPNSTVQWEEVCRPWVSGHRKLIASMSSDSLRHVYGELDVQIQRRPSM

[5] = target: T1, recombinant inactive factor XIII A …; details: remark: other sources report otherwise

stoichiometry N [1]: 2
Molecule: Factor XIII A subunit of plasma-purified inactive factor XIII (pFXIII-A2B2) (from UniProt P00488 39-732) (enzyme)

B1: recombinant factor XIII B subunit from Zedira (rFXIII-B2) (natural protein, human, UniProt P05160 21-661, looked up)
chain: EEKPCGFPHVENGRIAQYYYTFKSFYFPMSIDKKLSFFCLAGYTTESGRQEEQTTCTTEGWSPEPRCFKKCTKPDLSNGYISDVKLLYKIQENMRYGCASGYKTTGGKDEEVVQCLSDGWSSQPTCRKEHETCLAPELYNGNYSTTQKTFKVKDKVQYECATGYYTAGGKKTEEVECLTYGWSLTPKCTKLKCSSLRLIENGYFHPVKQTYEEGDVVQFFCHENYYLSGSDLIQCYNFGWYPESPVCEGRRNRCPPPPLPINSKIQTHSTTYRHGEIVHIECELNFEIHGSAEIRCEDGKWTEPPKCIEGQEKVACEEPPFIENGAANLHSKIYYNGDKVTYACKSGYLLHGSNEITCNRGKWTLPPECVENNENCKHPPVVMNGAVADGILASYATGSSVEYRCNEYYLLRGSKISRCEQGKWSSPPVCLEPCTVNVDYMNRNNIEMKWKYEGKVLHGDLIDFVCKQGYDLSPLTPLSELSVQCNRGEVKYPLCTRKESKGMCTSPPLIKHGVIISSTVDTYENGSSVEYRCFDHHFLEGSREAYCLDGMWTTPPLCLEPCTLSFTEMEKNNLLLKWDFDNRPHILHGEYIEFICRGDTYPAELYITGSILRMQCDRGQLKYPRCIPRQSTLSYQEPLRT
modifications: glycosylation pattern different from the plasma-purified B subunit (sites not given)
stoichiometry N [2]: 2

B2: Factor XIII B subunit of plasma-purified factor XIII (natural protein, human, UniProt P05160 21-661, looked up)
chain: EEKPCGFPHVENGRIAQYYYTFKSFYFPMSIDKKLSFFCLAGYTTESGRQEEQTTCTTEGWSPEPRCFKKCTKPDLSNGYISDVKLLYKIQENMRYGCASGYKTTGGKDEEVVQCLSDGWSSQPTCRKEHETCLAPELYNGNYSTTQKTFKVKDKVQYECATGYYTAGGKKTEEVECLTYGWSLTPKCTKLKCSSLRLIENGYFHPVKQTYEEGDVVQFFCHENYYLSGSDLIQCYNFGWYPESPVCEGRRNRCPPPPLPINSKIQTHSTTYRHGEIVHIECELNFEIHGSAEIRCEDGKWTEPPKCIEGQEKVACEEPPFIENGAANLHSKIYYNGDKVTYACKSGYLLHGSNEITCNRGKWTLPPECVENNENCKHPPVVMNGAVADGILASYATGSSVEYRCNEYYLLRGSKISRCEQGKWSSPPVCLEPCTVNVDYMNRNNIEMKWKYEGKVLHGDLIDFVCKQGYDLSPLTPLSELSVQCNRGEVKYPLCTRKESKGMCTSPPLIKHGVIISSTVDTYENGSSVEYRCFDHHFLEGSREAYCLDGMWTTPPLCLEPCTLSFTEMEKNNLLLKWDFDNRPHILHGEYIEFICRGDTYPAELYITGSILRMQCDRGQLKYPRCIPRQSTLSYQEPLRT
modifications: glycoprotein (sites not given)
stoichiometry N [3]: 2

stoichiometry N [4]: 2
stoichiometry N [5]: 2
B3: recombinant inactive factor XIII A subunit from ZymoGenetics (rFXIII-A2), P00488 1-732 (enzyme)
chain: MSETSRTAFGGRRAVPPNNSNAAEDDLPTVELQGVVPRGVNLQEFLNVTSVHLFKERWDTNKVDHHTDKYENNKLIVRRGQSFYVQIDFSRPYDPRRDLFRVEYVIGRYPQENKGTYIPVPIVSELQSGKWGAKIVMREDRSVRLSIQSSPKCIVGKFRMYVAVWTPYGVLRTSRNPETDTYILFNPWCEDDAVYLDNEKEREEYVLNDIGVIFYGEVNDIKTRSWSYGQFEDGILDTCLYVMDRAQMDLSGRGNPIKVSRVGSAMVNAKDDEGVLVGSWDNIYAYGVPPSAWTGSVDILLEYRSSENPVRYGQCWVFAGVFNTFLRCLGIPARIVTNYFSAHDNDANLQMDIFLEEDGNVNSKLTKDSVWNYHCWNEAWMTRPDLPVGFGGWQAVDSTPQENSDGMYRCGPASVQAIKHGHVCFQFDAPFVFAEVNSDLIYITAKKDGTHVVENVDATHIGKLIVTKQIGGDGMMDITDTYKFQEGQEEERLALETALMYGAKKPLNTEGVMKSRSNVDMDFEVENAVLGKDFKLSITFRNNSHNRYTITAYLSANITFYTGVPKAEFKKETFDVTLEPLSFKKEAVLIQAGEYMGQLLEQASLHFFVTARINETRDVLAKQKSTVLTIPEIIIKVRGTQVVGSDMTVTVEFTNPLKETLRNVWVHLDGPGVTRPMKKMFREIRPNSTVQWEEVCRPWVSGHRKLIASMSSDSLRHVYGELDVQIQRRPSM
